Results: doi:10.1101/2022.11.10.515920
pKd: −log10 of the molar value.

Assays:
[1] = biological target: adalimumab produced in BY-2 lysate; experiment: SPR
[2] = biological target: commercial adalimumab reference product from CHO cells (Humira); experiment: SPR

Chain of human FcR I (CD64) (P12314 16-292): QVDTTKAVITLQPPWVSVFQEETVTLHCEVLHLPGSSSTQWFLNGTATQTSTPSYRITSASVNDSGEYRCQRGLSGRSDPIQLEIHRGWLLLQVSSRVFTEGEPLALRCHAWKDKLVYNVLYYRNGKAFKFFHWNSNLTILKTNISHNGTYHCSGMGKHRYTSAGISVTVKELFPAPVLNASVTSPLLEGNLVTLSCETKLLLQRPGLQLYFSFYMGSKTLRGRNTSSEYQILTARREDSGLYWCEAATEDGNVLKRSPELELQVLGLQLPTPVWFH

## human FcR I (CD64) (from UniProt P12314) (receptor)
[1]
  pKd: 9.45
[2]
  pKd: 9.80
